Several values for one entry are separate records, joined by “and”; a condition that tells them apart may be missing. Equal entries are not always repeated. Where two headings read alike, the source gives them in different places.
T1: M2 protein of influenza A/Fort Worth/1/50 (H1N1), expressed on 293 cells (influenza A virus A/Fort Worth/1/50 …)
T1 chain: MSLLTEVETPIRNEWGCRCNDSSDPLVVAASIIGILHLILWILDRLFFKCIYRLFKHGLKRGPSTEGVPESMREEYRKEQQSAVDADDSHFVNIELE

B1: 8I10 (antibody, V domains shown)
VH: QVQLQESGPGLVKPSETLSLTCTVSGSSISNYYWSWIRQSPGKGLEWIGFIYYGGNTKYNPSLKSRVTISQDTSKSQVSLTMSSVTAAESAVYFCARASCSGGYCILDYWGQGTLVTVS
VL: DIQMTQSPSSLSASVGDRVTITCRASQNIYKYLNWYQQRPGKAPKGLISAASGLQSGVPSRFSGSGSGTDFTLTITSLQPEDFATYYCQQSYSPPLTFGGGTRVEIK
B2: 23K12 (antibody, V domains shown)
VH: EVQLVESGGGLVQPGGSLRISCAASGFTVSSNYMSWVRQAPGKGLEWVSVIYSGGSTYYADSVKGRFSFSRDNSKNTVFLQMNSLRAEDTAVYYCARCLSRMRGYGLDVWGQGTTVTVS
VL: DIQMTQSPSSLSASVGDRVTITCRTSQSISSYLNWYQQKPGKAPKLLIYAASSLQSGVPSRFSGSGSGTDFTLTISGLQPEDFATYYCQQSYSMPAFGQGTKLEIK

Columns and labels:
H1N1 (A/NWS/33) = experiment: H1N1 challenge V at 2 or 4 LD50 (Example 17); assay type: in vivo, mouse (balb/c); conditions: antibody 20 mg/kg, oseltamivir 10 mg/kg bid
[1] = test system: H5N1 (A/Vietnam/1203/04, VN1203); set-up: species or system mouse (balb/c); conditions: mouse, in vivo
H5N1 (VN1203/04) [2] = conditions: mouse, in vivo
H1N1 (A/PR/8/34) = experiment: H1N1 challenge VI at 5LD50 (Example 18); assay type: in vivo, mouse (balb/c); conditions: 5MLD50; antibody 20 mg/kg days 1, 3, 5; oseltamivir 10 mg/kg four hours post-infection
[3] = test system: H1N1 (A/Solomon Islands/06); experiment: H1N1 challenge IV at 10LD50 (Example 16); assay type: in vivo, mouse (balb/c); conditions: 10MLD50; antibody on days 3 and 5
[4] = test system: H5N1 (A/Vietnam/1203/04, VN1203); set-up: species or system mouse (balb/c); conditions: mouse, in vivo; remark: listed apart in the source
[5] = test system: H5N1 (A/Vietnam/1203/04, VN1203); set-up: species or system mouse (balb/c); conditions: mouse, in vivo; remark: listed apart in the source
[6] = test system: H5N1 (A/Vietnam/1203/04, VN1203); set-up: species or system mouse (balb/c); conditions: mouse, in vivo; remark: listed apart in the source
H5N1 (VN1203/04) [7] = test system: H5N1 (VN1203/04); set-up: key to Liver: viral antigens: +++: many; ++: moderate; +: few; ±: rare; −: negative; key to Liver: pathological changes / Lung: pathological changes / Brain: pathological changes: +++: severe; ++: moderate; +: mild; ±: scant; −: not observed; conditions: mouse, in vivo
H5N1 (VN1203/04) [8] = test system: H5N1 (VN1203/04); set-up: key: +++: many; ++: moderate; +: few; ±: rare; −: negative; conditions: mouse, in vivo
H5N1 (VN1203/04) [9] = test system: H5N1 (VN1203/04); set-up: key: +++: severe; ++: moderate; +: mild; ±: scant; −: not observed; conditions: mouse, in vivo
[10] = target: truncated M2 peptide SEQ ID NO 298; experiment: peptide ELISA, 5 µg/mL
[11] = target: truncated M2 peptide SEQ ID NO 300; experiment: peptide ELISA, 5 µg/mL
[12] = target: truncated M2 peptide SEQ ID NO 309; experiment: peptide ELISA, 5 µg/mL
[13] = target: truncated M2 peptide SEQ ID NO 308; experiment: peptide ELISA, 5 µg/mL
[14] = target: truncated M2 peptide SEQ ID NO 302; experiment: peptide ELISA, 5 µg/mL
[15] = target: truncated M2 peptide SEQ ID NO 271; experiment: peptide ELISA, 5 µg/mL
[16] = target: truncated M2 peptide SEQ ID NO 316; experiment: peptide ELISA, 5 µg/mL
[17] = target: truncated M2 peptide SEQ ID NO 310; experiment: peptide ELISA, 5 µg/mL
[18] = target: truncated M2 peptide SEQ ID NO 315; experiment: peptide ELISA, 5 µg/mL
[19] = target: truncated M2 peptide SEQ ID NO 311; experiment: peptide ELISA, 5 µg/mL
[20] = target: truncated M2 peptide SEQ ID NO 307; experiment: peptide ELISA, 5 µg/mL
[21] = target: truncated M2 peptide SEQ ID NO 313; experiment: peptide ELISA, 5 µg/mL
[22] = target: truncated M2 peptide SEQ ID NO 299; experiment: peptide ELISA, 5 µg/mL
[23] = target: truncated M2 peptide SEQ ID NO 301; experiment: peptide ELISA, 5 µg/mL
[24] = target: truncated M2 peptide SEQ ID NO 312; experiment: peptide ELISA, 5 µg/mL
M2 peptide SEQ ID NO 273 = experiment: peptide ELISA, 5 µg/mL
[25] = target: truncated M2 peptide SEQ ID NO 314; experiment: peptide ELISA, 5 µg/mL
[26] = target: truncated M2 peptide SEQ ID NO 306; experiment: peptide ELISA, 5 µg/mL
[27] = target: truncated M2 peptide SEQ ID NO 305; experiment: peptide ELISA, 5 µg/mL
[28] = target: truncated M2 peptide SEQ ID NO 303; experiment: peptide ELISA, 5 µg/mL
[29] = target: truncated M2 peptide SEQ ID NO 304; experiment: peptide ELISA, 5 µg/mL
[30] = target: T2, M2 protein on influenza A/Puerto Rico/8/34 (H1N1) virus particles (influenza A virus A/Puerto Rico/8/34 …, UniProt P06821 1-97); experiment: ELISA on A/PR/8 virus, normalised to 8i10 at 10 µg/ml [D00002 FIG. 2B]
[31] = target: T1, M2 protein of influenza A/Fort …; experiment: cell staining images, 293-HEK cells stably expressing M2
[32] = target: T2, M2 protein on influenza A/Puerto …; experiment: ELISA on purified A/Puerto Rico/8/34 virus
[33] = target: M2 protein of influenza A/Puerto Rico/8/34 (H1N1) on cells (influenza A virus A/Puerto Rico/8/34 …, UniProt P06821 1-97); experiment: FACS, MDCK cells infected with A/Puerto Rico/8/34

Molecule	ELISA A450 [11]	ELISA A450 [14]	ELISA A450 [15]	ELISA A450 [16]	ELISA A450 [17]	ELISA A450 [18]	ELISA A450 [19]	ELISA A450 [21]	ELISA A450 [23]	ELISA A450 [24]	ELISA A450 [25]	ELISA A450 [26]	ELISA A450 [27]	ELISA A450 [28]	ELISA A450 [29]	EC50 (read off the curve) [30] [µg/mL]	binding result [31]	EC50 [32] [µg/mL]	EC50 (read off the curve) [33] [µg/mL]	also measured
CCOC(=O)C1=C[C@@H](OC(CC)CC)[C@H](NC(C)=O)[C@@H](N)C1 [oseltamivir]	–	–	–	–	–	–	–	–	–	–	–	–	–	–	–	–	–	–	–	survival rate at day 21 (H1N1 (A/NWS/33); 2MLD50): 90%; survival rate at day 21 (H1N1 (A/NWS/33); 4MLD50): 100%; protection from death (in words) [1]: completely protected mice; protection from weight loss (in words) [1]: completely protected mice; survival rate at day 15 [1]: 60%; weight remaining (in words) [1]: retained more weight; survival rate at day 14 (H5N1 (VN1203/04) [2]): 90% and 50%; survival rate at day 21 (H1N1 (A/PR/8/34)): 80%; mice surviving until day 21 [3]: about 10%; survival (in words) [4]: extinction of the population prior to the end of the therapy; survival rate at day 14 [5]: 20%; survival rate at day 14 [6]: 20%
CCOC(=O)C1=C[C@@H](OC(CC)CC)[C@H](NC(C)=O)[C@@H](N)C1 [Osel]	–	–	–	–	–	–	–	–	–	–	–	–	–	–	–	–	–	–	–	Brain: pathological changes (H5N1 (VN1203/04) [7]): −/− and ++/++ and +/++; Liver: pathological changes (H5N1 (VN1203/04) [7]): −/−; Liver: viral antigens (H5N1 (VN1203/04) [7]): −/−; Lung: pathological changes (H5N1 (VN1203/04) [7]): +/+ and +/++ and ++/++; Brain: viral antigens (H5N1 (VN1203/04) [8]): −/−; Lung: viral antigens (H5N1 (VN1203/04) [8]): +/+; Brain: viral antigens (H5N1 (VN1203/04) [9]): ++/++ and +/++; Lung: viral antigens (H5N1 (VN1203/04) [9]): +/++ and ++/++
B1	0.09	0.13	0.12	0.1	0.11	0.1	0.11	0.13	0.11	0.1	0.1	0.14	0.14	0.12	0.14	~0.04	binds	~0.1	~0.1	ELISA A450 [10]: 0.09; ELISA A450 [12]: 0.12; ELISA A450 [13]: 0.29; ELISA A450 [20]: 0.26; ELISA A450 [22]: 0.09; ELISA A450 (M2 peptide SEQ ID NO 273): 0.11
B2	0.2	0.35	0.3	0.2	0.24	0.2	0.25	0.3	0.34	0.24	0.24	0.39	0.34	0.34	0.36	~0.06	binds	~0.1	~0.2	–
